From patent US9113649B2, “Food additive comprising an amidase for detoxifying ochratoxin” (DuPont Nutrition Biosciences ApS, priority 2010, dated 2015)
Read-outs that look alike come from different tables or passages of the source.

Columns and labels:
[1] = rat, in vivo; cited from earlier work
[2] = type: biochemical; conditions: for ability to degrade ochratoxin A: enzyme screen, 20 h
Method: Activity was expressed in % OT-α (product of OTA) area: the area corresponding to the product divided by the total area (peak area of OTA plus OT-α).
The buffers employed in the assay were: 50 mM sodium acetate buffer (pH 4, 4.5, 5 and 5.5); 50 mM MES buffer (pH 6, 6.5 and 7); 0.2M Mops-NaOH) pH7.0), 50 mM Tris-HCl buffer (pH 7.5, 8 and 8.5). Ochratoxin A (OTA) solution (1 mg/mL) was made of 5 mg ochratoxin A (Sigma, ref. 32937) dissolved in ethanol/water (60/40) and stored at −20° C. Screening assays were performed with […] OTA solution and different enzyme concentrations (for example, 0.1-5 mg/ml) in a final volume of 300 μL. Enzymatic reactions were done at 37° C. for 20 h±1 h under constant agitation. Samples were filtered using syringe filter 0.20 μm for HPLC analysis. The HPLC apparatus consisted of a Dionex P580 pump and Dionex ASI-100 autosampler connected to a Dionex RF-2000 fluorescence detector (λex=333 nm; λem=460 nm) and a Dionex UVD340 U UV detector at 257 nm. Elution was through a nucleosil 100-5 C18 column (250×4.6 mm, 5 μm particle size; Chrompack) with water/acetonitrile/acetic acid (100:100:1, v/v/v) at a 0.6 mL/min flow-rate. The column was kept at 30° C. and was connected to guard column (C18, 1 mm, Optimize technologies). The OTA and its degradation products were monitored both by uv at 235 nm and fluorescence (excitation at 278 nm emission at 440 nm).
Thirty enzymes including various lipases, proteases and amdiases were investigated for their ability to degrade ochratoxin A (Table 1). […] To facilitate the comparison of these three enzymes, the protein concentration of PEPAd was determined and enzyme solutions of carboxypeptidase A and Amano™ lipase A were prepared at the same concentration (1 mg/ml). A kinetic of the degradation was carried out (FIG. 1). […] Amano™ lipase A product was a mixture of different enzymes with the dominant activity being lipase. […] Other proteases, lipases and amidases listed in Table 1 were not able to break OTA down (data not shown).

[3] = Abrunhosa et al., Toxins 2010; cited from earlier work
[4] = activity of three fungal amidases on ochratoxin A (intracellular cell-free fraction); type: biochemical; conditions: for Activity on ochratoxin A expressed as ochratoxin A peak area: remaining OTA, 20 μl intracellular cell-free fraction, pH7, 23° C., 17 h
Method: The reaction mixture using OTA as substrate consisted of 75 μl phosphate (67 mM, pH7), 5 μl OTA (2.4 μg/ml) and 20 μl intracellular cell-free fraction. The reaction was performed at 23° C. for 17 h and stopped by adding 0.15 ml acetonitrile and analyzed on HPLC with an injection volume of 5 μl.

Molecule	ability to degrade ochratoxin A ([2]; 37° C.)	Activity on ochratoxin A expressed as ochratoxin A peak area [4]	also measured
C[C@@H]1Cc2c(Cl)cc(C(=O)N[C@@H](Cc3ccccc3)C(=O)O)c(O)c2C(=O)O1 [OTA, ochratoxin A]			elimination half-time in the body [1]: 103 h
C[C@@H]1Cc2c(Cl)cc(C(=O)O)c(O)c2C(=O)O1 [ochratoxin α]			elimination half-time in the body [1]: 9.6 h
porcine elastase: serine protease elastase from porcine pancreas (Sigma E0258) [reference compound]	showed certain activity with OTA		
yeast carboxypeptidase Y: Carboxypeptidase Y from baker's yeast (Saccharomyces cerevisiae) (protein, listed as Saccharomyces cerevisiae) MKAFTSLLCGLGLSTTLAKAISLQRPLGLDKDVLLQAAEKFGLNLDLDHLLKELDSNVLDAWAQIEHLYPNQVMSLETSTKPKFPEAIKTKKDWDFVVKNDAIENYQLRVNKIKDPKILGIDPNVTQYTGYLDVEDEDKHFFFWTFESRNDPAKDPVILWLNGGPGCSSLTGLFFELGPSSIGPDLKPIGNPYSWNSNATVIFLDQPVNVGFSYSGSSGVSNTVAAGKDVYNFLELFFDQFPEYVNKGQDFHIAGESYAGHYIPVFASEILSHKDRNFNLTSVLIGNGLTDPLTQYNYYEPMACGEGGEPSVLPSEECSAMEDSLERCLGLIESCYDSQSVWSCVPATIYCNNAQLAPYQRTGRNVYDIRKDCEGGNLCYPTLQDIDDYLNQDYVKEAVGAEVDHYESCNFDINRNFLFAGDWMKPYHTAVTDLLNQDLPILVYAGDKDFICNWLGNKAWTDVLPWKYDEEFASQKVRNWTASITDEVAGEVKSYKHFTYLRVFNGGHMVPFDVPENALSMVNEWIHGGFSL	showed certain activity with OTA		ochratoxin degrading activity [3]: low ochratoxin degradding activity
amidase from Metarhizium anisopliae: putative amidohydrolase from Metarhizium anisopliae (EFZ00058) expressed intracellularly in Trichoderma reesei (protein, listed as Metarhizium anisopliae) MTRRVIPHSESAESVDDAQHVSGRIYSTGFGIAVRTGQPQSQDDDAETGVKKVFYTIVMTKLLIPGDGEPIKDAALVVKNKIIDWVGRQADLPNEYTEKPHKLHNVPYLMPGLWDCHVHFAGSNGEREAEEGSTGLSFLADHPTTAGARLARGCWDAIQRGYTSMRDLAGFGCEISKAIEDGVIIGPNIYSAGACLSQLAGHGDVFALPAGDALLNLGLASVKAGQFGAGMSCLVDGVDECRRGVRLQIRRGAKCIKVMASGGVLSRDDNPLYAQFSREELDTIVSEAKRMERTVAAHVHGKPGILQAVEAGVTSVEHVSFADQECIDLIKDRGTIFVGTRTIVNLLLDSKGEGMPKKMWEKAKLVGTHSLEGYKKAIKAGCTIALGTDTEPGFNMAIELQYAVEAGMSSLEAIKAATANGPLTVAGQAPLTGQLKAGYEADMIGVCDNPVEDVKVLQKKSNIGWVWKGGKLFKGPGIGPWGEEL		0.96	activity in degrading ochratoxin A (in words) [4]: showed activity in degrading ochratoxin A
amidase from Glomerella graminicola: putative amidohydrolase from Glomerella graminicola (EFQ25792) expressed intracellularly in Trichoderma reesei (protein, listed as Glomerella graminicola) MGGSFRPNYADGPEPPFSPTKKTTLVIIKTSLLIPGDGEPLKDGALVISSKVIAWVGPQSSLPSEYADSPHRSYTVPYLMPGLWDCHAHFGGESPNDDGGNDPYQVFITEHPAASGARLTRGCWLALQRGYTSLRDVAGLGCEVSRAIEDGSIVGPNVYSSGSGLSQLAGHGDIFSLPAGDVLLNLGVSQITPGHFGTHATMIVDGVDECRRAVRLQIRRGAKCIKVMASGGVMSRDDNPNYAQFSAAELETIVEEATRQNRVVAAHVHGKAGILAAINAGVTTLEHASFADRECIDLIKEKGIVYIATRIVVHLLLSTGGKGLPPTVWEKAKLVAKNHMTAYKMAIESGVQIALGTDTGPGYNMATELECAVEAGMSNLEAIKAATANGPLSVGGQAPKTGQLKVGYEADVIGLLQNPVEDVKVLQKVDNVGWVWKGGKLFKGPGVGPWGEEPGVWEDITGVSRLRCTTGY		0.68	
PEPAd: a Danisco aspartic acid protease cloned from A. niger (protein, Aspergillus niger) MHLPQRLVTAACLCASATAFIPYTIKLDTSDDISARDSLARRFLPVPNPSDALADDSTSSASDESLSLNIKRIPVRRDNDFKIVVAETPSWSNTAALDQDGSDISYISVVNIGSDEKSMYMLLDTGGSDTWVFGSNCTSTPCTMHNTFGSDDSSTLEMTSEEWSVGYGTGSVSGLLGKDKLTIANVTVRMTFGLASNASDNFESYPMDGILGLGRTNDSSYDNPTFMDAVAESNVFKSNIVGFALSRSPAKDGTVSFGTTDKDKYTGDITYTDTVGSDSYWRIPVDDVYVGGTSCDFSNKSAIIDTGTSYAMLPSSDSKTLHSLIPGAKSSGSYHIIPCNTTTKLQVAFSGVNYTISPKDYVGATSGSGCVSNIISYDLFGDDIWLLGDTFLKNVYAVFDYDELRVGFAERSSNTTSASNSTSSGTSSTSGSTTTGSSTTTTSSASSSSSSDAESGSSMTIPAPQYFFSALAIASFMLWL	showed an OTA converting activity although this was less efficient		conversion of OTA ([2]; after 1 day reaction, 37° C., same protein concentration (1 mg/ml)): full conversion was not reached
amidase from Aspergillus oryzae: hypothetical protein from Aspergillus oryzae (XP_001826758) expressed intracellularly in Aspergillus niger (protein, listed as Aspergillus oryzae) MHRMLTDDRLYRVDADLLIPGKGDPIPHGAVVWQCKTIRYAGPRSGVPTEFQGATTTHVPVVMPGMWDCHIHFLGATAATMNAIVDTPQALAGARSVPDLHATVMAGFTSVREVGGYGCDLAKAVGEGRIPGPNIYSSHSAISMTAGHGDVHGVHRDSLLDLCAHGLPLTIADGVPECLLAVRKQLRRGAKVIKVCASGGVVSAIDDPQHQEFSFEELKAIVDEAARARRVVAAHCHGKAGIMNALRAGCRTIEHGSFLDEEAVGLMKEKGAILVATRSVIESGLAMKDLFTPSSYQKLLAVADAHRKAYQLAISRGVTIALGTDQFISSDNPMIGYGRNGHEVRYAVDAGLTPLAAIEAATANGPLTLGYQAPQSGQLKEGYDADIIAVRENPLENVAVLSNSKNVTHVWRGGMLIKS		8.57	
carboxypeptidase A: Carboxypeptidase A from bovine pancreas (Sigma) (protein, listed as Bos taurus) MQGLLILSVLLGAALGKEDFVGHQVLRITAADEAEVQTVKELEDLEHLQLDFWRGPGQPGSPIDVRVPFPSLQAVKVFLEAHGIRYRIMIEDVQSLLDEEQEQMFASQSRARSTNTFNYATYHTLDEIYDFMDLLVAEHPQLVSKLQIGRSYEGRPIYVLKFSTGGSNRPAIWIDLGIHSREWITQATGVWFAKKFTEDYGQDPSFTAILDSMDIFLEIVTNPDGFAFTHSQNRLWRKTRSVTSSSLCVGVDANRNWDAGFGKAGASSSPCSETYHGKYANSEVEVKSIVDFVKDHGNFKAFLSIHSYSQLLLYPYGYTTQSIPDKTELNQVAKSAVEALKSLYGTSYKYGSIITTIYQASGGSIDWSYNQGIKYSFTFELRDTGRYGFLLPASQIIPTAQETWLGVLTIMEHTLNNLY	able to breakdown OTA		ochratoxin degrading activity [3]: low ochratoxin degradding activity; conversion of OTA ([2]; after 7 h reaction at 37° C., enzyme 1 mg/ml): full conversion of OTA was obtained
